The supplement of paper PMC10567573
± gives the standard deviation.

Experiment: protein stability index of a GFP-peptide fusion (GPS, HEK-293T) (PSI 1-6); higher = more stable
Conditions: c terminus: a fixed tail appended
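Note: 24-mer peptide tiles fused after GFP, lentivirally expressed, FACS-sorted into six equal bins by GFP/DsRed ratio, decoded by Illumina sequencing, PSI is the read-weighted mean bin number.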

Row | Sequence | protein stability index (treatment: DMSO) | protein stability index (treatment: MLN4924 1 uM, 8 h)
1 | VVEVTKGILEHVDSASPVEDTSND [M1AP] | 5.54 ± 0.23 | 5.47 ± 0.31
2 | VVVESMEQDRIPEVHVPPSSAVSG [MIA2] | 4.45 ± 0.36 | 4.48 ± 0.2
3 | VYFKRFYARYSLKSIDPVLMAPTC [CCNC] | 3.11 ± 1.3 | 2.13 ± 0.32
4 | VYMTEPIDEYCVQQLKEFDGKSLV [HSP90AB1] | 3.06 ± 0.15 | 3.29 ± 0.25
5 | WFGASVLSLLELLELLLDASALTL [SCNN1D] | 2.54 ± 0.74 | 2.15 ± 0.31
6 | WFQDPTRFTGTMDAFVKIVRHEGT [SLC25A39] | 2.17 ± 0.25 | 2.23 ± 0.37
7 | WMLTRKQFGLLSFFFAVLHAIYSL [STEAP1] | 1.95 ± 0.54 | 2.1 ± 0.27
8 | WQDSDTVKLLVDLELSYGFENGQK [TOR1AIP2] | 2.7 ± 0.37 | 2.65 ± 0.49
9 | WTSFICDTYIVLAWISKIKGSPDV [SMIM2] | 3.52 ± 0.58 | 2.53 ± 0.38
10 | YCESHAKARVKPPEGYDVVAVYPN [PDLIM4] | 3.74 ± 0.38 | 4.08 ± 0.25
11 | YDLEYWAFHDGQRSRLRPRDDLDR [TRIM14] | 3.52 ± 0.36 | 3.69 ± 0.34
12 | YDPNYMSPFAQFACDNGLNVRGGK [PPTC7] | 3.63 ± 1 | 4.11 ± 0.43
13 | YEAGQVTLHNAQTQEPIFTFTASF [TRIM15] | 2.38 ± 0.17 | 2.11 ± 0.15
14 | YERSFIHKIKHKHILAKNYFSQVP [IQUB] | 2.12 ± 0.61 | 2.24 ± 0.27
15 | YFLLCDVLPEDRILREELQKQRLR [ZNF277] | 2.37 ± 0.3 | 2.28 ± 0.54
16 | YIESSTKVYDDMAFRYLSWILFPL [CLPTM1] | 2.73 ± 0.13 | 2.61 ± 0.47
17 | YIPSSYVDSHHEYPAMTFYSPAVM [ESR2] | 2.73 ± 0.93 | 2.6 ± 0.45
18 | YIYYNEKYGGPNHHLPLPDNWKSQ [CPN1] | 2.46 ± 0.75 | 2.35 ± 0.37
19 | YLLALTIIVSIVHSVFEFLAFKND [CLPTM1] | 2.985 ± 0.024 | 2.85 ± 0.5
20 | YLLTVMAAAAKAFKHPSIRNPVSL [ADAMTS4] | 2.56 ± 0.62 | 2.15 ± 0.32

Row | Sequence | protein stability index (treatment: DMSO) | protein stability index (treatment: MLN4924 1 uM, 8 h)
21 | YMDRFTVAGVLPDIEQFFNIGDSS [SPNS1] | 2.71 ± 0.34 | 2.99 ± 0.18
22 | YMSQVLEKEMKAQEQRLGIRISMS [GMPPB] | 2.38 ± 0.094 | 2.74 ± 0.42
23 | YNDVMQENYETVISLALFVLPKPK [ZNF75A] | 2.82 ± 0.64 | 2.71 ± 0.84
24 | YNILKTCRGHTLERSVFSERTEES [CARM1] | 2.56 ± 0.5 | 2.56 ± 0.6
25 | YNLTILDCLQGIRKGLQHGFFDFE [CDC14A] | 2.68 ± 1.1 | 2.71 ± 0.89
26 | YNNDIDYYAKRNALRAAEVWMDDF [GALNT9] | 2.96 ± 0.076 | 2.99 ± 0.32
27 | YQDKIRPYIQLPSHSNITGIVEVI [TRIB1] | 2.39 ± 0.3 | 2.17 ± 0.094
28 | YQEASNLEQFVTRFLLKETLNQLQ [NECAB1] | 2.66 ± 0.81 | 2.44 ± 0.69
29 | YRFLLYGLHEGKRLGPLSAEGTTG [TNXB] | 2.8 ± 0.62 | 2.29 ± 0.31
30 | YRQWHAKIFVENLRRQKSLRLEWE [IQUB] | 2.29 ± 0.54 | 1.87 ± 0.28
31 | YRRVNELLLSILNPTRQDESIQRI [ZER1] | 2.46 ± 0.14 | 2.66 ± 0.53
32 | YSEHFLQEAKLLHWNGRHKPWDFP [GLT8D2] | 2.17 ± 0.21 | 2.41 ± 0.36
33 | YSFYLFHPLAYGMVGPLAQDPQSP [POMT2] | 2.45 ± 0.7 | 2.67 ± 0.43
34 | YSSNQLHHFFCDIAPVLKLASHHN [OR10K2] | 2.59 ± 0.72 | 2.17 ± 0.38
35 | YSSRTPGTPGTPSYPRTPHTPGTP [MAP2] | 4.25 ± 0.26 | 4.27 ± 0.2
36 | YTFHARFGEVRPYFYLGGARGAGP [TRIM35] | 2.27 ± 0.083 | 2.28 ± 0.4
37 | YVGEPLVCEVQVHGGSLLGKKYNW [GFOD1] | 2.61 ± 0.62 | 2.18 ± 0.42
38 | YVKVLHHMVKISGGPRISYPLLHE [MAGEA6] | 2.68 ± 0.52 | 2.41 ± 0.5
39 | YVWVPIEQCLPSLENSKYCRFNQD [ATE1] | 2.3 ± 0.4 | 2.19 ± 0.12
40 | YYTFHFLYFKDKIFNVAIPRFHMA [FBXO3] | 3.06 ± 0.48 | 2.81 ± 0.2
